Experimental findings from publication doi:10.1101/2022.07.22.500997 (bioRxiv, 2022) are described below.

For data set [1], the target named is Dg_(GH172a) (HMPREF9455_02467), DUF2961 / GH172 exo-D-arabinofuranosidase from Dysgonomonas gadei (Dysgonomonas gadei) (UniProt F5IZF0). In words: SEC-MALS.
Data set [2] deals with Dg_(GH172b) (HMPREF9455_02471), DUF2961 / GH172 exo-D-arabinofuranosidase from Dysgonomonas gadei (Dysgonomonas gadei) (UniProt F5IZF4). Put plainly: SEC-MALS.
For data set [3], the target named is Dg_(GH172c) (HMPREF9455_02479), DUF2961 / GH172 exo-D-arabinofuranosidase from Dysgonomonas gadei (Dysgonomonas gadei) (UniProt F5IZG2). In words: crystal structure.
The target is the same in data set [4]. In words: SEC-MALS.
The target in data set [5] is Myc_(GH172) (GII36_05205), DUF2961 / GH172 enzyme from Candidatus Mycosynbacter amalyticus (Candidatus Mycosynbacter amalyticus). In words: SEC-MALS.
Data set [6] deals with the molecule itself. In words: SEC-MALS.

In the case of “Dg_(GH172a) (HMPREF9455_02467), DUF2961 / GH172 exo-D-arabinofuranosidase from Dysgonomonas gadei (from UniProt F5IZF0 1-386) (enzyme)”, the stoichiometry N in data set [1] is 12. The molecule “Dg_(GH172b) (HMPREF9455_02471), DUF2961 / GH172 exo-D-arabinofuranosidase from Dysgonomonas gadei (from UniProt F5IZF4 1-643) (enzyme)” came in with a stoichiometry N in data set [2] of 2. Consider “Dg_(GH172c) (HMPREF9455_02479), DUF2961 / GH172 exo-D-arabinofuranosidase from Dysgonomonas gadei (from UniProt F5IZG2 1-402) (enzyme)”, for which the stoichiometry N in data set [3] and in data set [4] was 6 each time. In the case of “Myc_(GH172) (GII36_05205), DUF2961 / GH172 enzyme from Candidatus Mycosynbacter amalyticus”, the stoichiometry N in data set [5] was determined as 3.

B1: Noc_(GH172) (O3I_017420), DUF2961 / GH172 enzyme from Nocardia brasiliensis (enzyme)
chain: MTPPRRSELWLLDDTRTRSVSAENPTGAPGGGARATTGTGAHAARLLGPGWKISPSIVLGDGETATLADVSGPGVLRHCWLTTDRAALRELTLRMYWDDAAEPAIDVPLGDFFCNGWDELALVDSEMVVVAPAGGLNSYWPMPFRRRARITLENHCGRSVPVYYQITYGEEDVPGEAGYLHARWSRSAPLGSPAVHTLLDTGPARGRYVGTYLAIRPGAPRWWGEGEMKFYLDGDDEYPTLCGTGTEDYFGGAWNFDMDGKYRTYSTAYLGLPQALPADEIYQAHQRFGMYRWHVHDPICFHRELRVTVQGLGWRDSDTYLPLEDAEIATTVWWYQEVPPSG
In the case of B1, in data set [6], the “stoichiometry N” value was 3.
